Source: article PMC5993538, “The plant-specific transcription factors CBP60g and SARD1 are targeted by a Verticillium secretory protein VdSCP41 to modulate immunity”

Biological target: T1, GST-CBP60g (Arabidopsis thaliana, UniProt F4K2R6 1-563)
T1 sequence: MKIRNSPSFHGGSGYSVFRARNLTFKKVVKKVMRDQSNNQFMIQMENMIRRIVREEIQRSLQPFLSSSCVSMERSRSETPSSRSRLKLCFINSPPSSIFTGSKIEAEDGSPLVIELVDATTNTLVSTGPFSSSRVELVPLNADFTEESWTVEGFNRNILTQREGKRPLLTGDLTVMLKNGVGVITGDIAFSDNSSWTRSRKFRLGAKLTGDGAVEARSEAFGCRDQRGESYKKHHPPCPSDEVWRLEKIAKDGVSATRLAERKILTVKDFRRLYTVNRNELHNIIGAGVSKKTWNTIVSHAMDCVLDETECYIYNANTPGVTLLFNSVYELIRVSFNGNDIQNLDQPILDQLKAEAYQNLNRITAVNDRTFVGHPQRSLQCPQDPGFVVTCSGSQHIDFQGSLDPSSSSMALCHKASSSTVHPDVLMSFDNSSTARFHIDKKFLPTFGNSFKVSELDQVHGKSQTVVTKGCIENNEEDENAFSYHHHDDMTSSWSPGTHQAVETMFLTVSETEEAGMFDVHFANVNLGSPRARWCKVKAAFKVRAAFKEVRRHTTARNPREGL
Experiment: EMSA; no effector; signal reduced by 150x unlabeled probe; 10 mM Tris-HCl pH 7.5, 50 mM KCl, 1 mM DTT, 50 ng poly[dI-dC], 20 ul, room temperature 30 min; 2 fmol probe, 4 ug GST-CBP60g; 5% native PAGE
Details: protein: recombinant; tags: N-terminal GST (pGEX-6p-1); label: 32P (5' end, T4 PNK); blunt

B1: ICS1 promoter 60-bp probe (dsDNA)
DNA 1: TGTGTAATTTGGTGGTTATTTCATAGAAATTTTGGGGAAATTGTTGCACCTCTCCACTCT
DNA 2: AGAGTGGAGAGGTGCAACAATTTCCCCAAAATTTCTATGAAATAACCACCAAATTACACA
Question: Does B1 bind?
Answer: Result: binds
